Results reported in PMC8777244.

Key:
[1] = target: N-terminal Dansyl-labeled human Nox5β CMBD peptide (human); assay: other fluorescence titration
[2] = target: human Nox5β CaM-binding domain (CMBD) peptide, residues 671-689 (human); assay: other fluorescence titration
[3] = target: human Nox5β CaM-binding domain (CMBD) peptide, residues 671-689 (human); assay: ITC
[4] = target: MBP-fused human Nox5β dehydrogenase domain residues 665-719 (human) (UniProt Q96PH1); assay: ITC
[5] = target: MBP-fused human Nox5β dehydrogenase domain residues 528-719 (human) (UniProt Q96PH1); assay: ITC
[6] = target: MBP-fused human Nox5β dehydrogenase domain residues 605-719 (human) (UniProt Q96PH1); assay: ITC
[7] = target: MBP-fused human Nox5β dehydrogenase domain residues 584-719 (human) (UniProt Q96PH1); assay: ITC
[8] = target: human Nox5β CaM-binding domain (CMBD) peptide, residues 671-689 (human); assay: fluorescence polarisation

Sequence of MBP-fused human Nox5β dehydrogenase domain residues 584-719 (human) (Q96PH1 630-765): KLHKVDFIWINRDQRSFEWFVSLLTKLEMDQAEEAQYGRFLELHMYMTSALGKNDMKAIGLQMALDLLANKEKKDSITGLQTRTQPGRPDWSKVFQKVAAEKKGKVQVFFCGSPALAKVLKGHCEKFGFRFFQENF
Sequence of MBP-fused human Nox5β dehydrogenase domain residues 665-719 (human) (Q96PH1 711-765): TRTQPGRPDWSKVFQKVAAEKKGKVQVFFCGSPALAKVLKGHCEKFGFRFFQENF
Sequence of MBP-fused human Nox5β dehydrogenase domain residues 605-719 (human) (Q96PH1 651-765): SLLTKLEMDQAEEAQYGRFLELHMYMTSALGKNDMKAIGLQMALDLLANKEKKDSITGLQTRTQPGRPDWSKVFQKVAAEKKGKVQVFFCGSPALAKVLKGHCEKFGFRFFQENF
Sequence of MBP-fused human Nox5β dehydrogenase domain residues 528-719 (human) (Q96PH1 574-765): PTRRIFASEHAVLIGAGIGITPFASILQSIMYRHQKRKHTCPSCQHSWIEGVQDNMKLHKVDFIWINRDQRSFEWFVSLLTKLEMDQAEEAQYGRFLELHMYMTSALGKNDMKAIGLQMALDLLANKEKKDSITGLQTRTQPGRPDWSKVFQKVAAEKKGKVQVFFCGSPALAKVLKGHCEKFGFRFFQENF

Which results are given for “recombinant 6xHis-tagged calmodulin (from UniProt P0DP23 1-149) (natural protein)”?
stoichiometry N ([peptide]/Protein]) [1]: 2.11; stoichiometry N ([peptide]/Protein]) [2]: 2.1; dH (per mole protein) [3]: -7.85 kcal/mol; stoichiometry N [3]: 0.521; stoichiometry N ([peptide]/Protein]) [3]: 1.79; dH [4]: -8.21 kcal/mol; stoichiometry N ([peptide]/Protein]) [4]: 1.15; dH [5]: -19 kcal/mol; stoichiometry N ([peptide]/Protein]) [5]: 1.18; dH [6]: -14.8 kcal/mol; stoichiometry N ([peptide]/Protein]) [6]: 1.15; dH [7]: -16.8 kcal/mol; stoichiometry N ([peptide]/Protein]) [7]: 1.04; stoichiometry N ([peptide]/Protein]) [8]: 1.91
